# Assay results reported in the RNAGym collection of RNA variant scans (doi:10.1093/molbev/msab373).
# B1: Azoarcus group I ribozyme (parent)
# chain: GUGCCUUGCGCCGGGAAACCACGCAAGGGAUGGUGUCAAAUUCGGCGAAACCUAAGCGCCCGCCCGGGCGUAUGGCAACGCCGAGCCAAGCUUCGGCGCCUGCGCCGAUGAAGGUGUAGAGACUAGACGGCACCCACCUAAGGCAAACGCUAUGGUGAAGGCAUAGUCCAGGGAGUGGCGAAAGUCACACAAACCGG
# Variants of: B1
# Assay: reverse-splicing fitness (ratio to wild type); higher = more active; in vitro selection; Mg2+ level not given
# Procedure, shortened: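 An in vitro group I ribozyme library with randomized positions was T7-transcribed and gel-purified. In triplicate, 10 pmol RNA in EPPS pH 7.5 was reacted with 50 pmoles of a 30-nt RNA substrate for 1 h at 37 °C across several added MgCl2 levels (1–48 mM), then stopped with EDTA. Products were reverse transcribed from a substrate-complementary primer, PCR-amplified and sequenced (HiSeq 4000). Fitness is a variant's read proportion after selection over that before, normalised to wild type.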
row,Variant,reverse-splicing fitness
1,C82G A111C A120C A145G C150A C169G U176A,0.0156
2,C82G A111C A120C A145G C150A C169G U176G,0.00768
3,C82G A111C A120C A145G C150A C169G U176C,0.0228
4,C82G A111C A120C A145G C150G C169G,0.00708
5,C82G A111C A120C A145G C150G C169A,0.00885
6,C82G A111C A120C A145G C150G C169U,0.00874
7,C82G A111C A120C A145U C150A C169A U176C,0.0129
8,C82G A111C A120C A145U C150A C169A U176A,0.0163
9,C82G A111C A120C A145U C150A C169A U176G,0.00868
10,C82G A111C A120C A145U C150U C169G,0.00788
11,C82G A111C A120C A145U C150U C169A,0.0102
12,C82G A111C A120C A145U C150U C169U,0.0116
13,C82G A111C A120C A145C C169A U176C,0.0118
14,C82G A111C A120C A145C C169A U176G,0.0064
15,C82G A111C A120C A145C C169A U176A,0.0175
16,C82G A111C A120C A145U C150U C169A U176C,0.0124
17,C82G A111C A120C A145U C150U C169A U176G,0.00748
18,C82G A111C A120C A145U C150U C169A U176A,0.0138
19,C82G A111C A120C C150A C169G,0.00905
20,C82G A111C A120C C150A C169U,0.0123
21,C82G A111C A120C C150A C169A,0.0108

row,Variant,reverse-splicing fitness
1,C82G A111C A120C A145G C150G,0.0102
2,C82G A111C A120C A145G C150A,0.0148
3,C82G A111C A120C A145G C150U,0.0408
4,C82G A111C A120C C150A C169A U176C,0.019
5,C82G A111C A120C C150A C169A U176A,0.0164
6,C82G A111C A120C C150A C169A U176G,0.00868
7,C82G A111C A120C A145U C169U U176C,0.0123
8,C82G A111C A120C A145U C169U U176G,0.00641
9,C82G A111C A120C A145U C169U U176A,0.0126
10,C82G A111C A120C A145U C150G C169G U176C,0.00759
11,C82G A111C A120C A145U C150G C169G U176A,0.0088
12,C82G A111C A120C A145U C150G C169G U176G,0.00673
13,C82G A111C A120C A145C C169G U176C,0.0205
14,C82G A111C A120C A145C C169G U176G,0.0061
15,C82G A111C A120C A145C C169G U176A,0.0259
16,C82G A111C A120C A145U C150U C169G U176C,0.0162
17,C82G A111C A120C A145U C150U C169G U176G,0.0072
18,C82G A111C A120C A145U C150U C169G U176A,0.0133
19,C82G A111C A120C A145G C150A U176A,0.0118
20,C82G A111C A120C A145G C150A U176C,0.0234
21,C82G A111C A120C A145G C150A U176G,0.00711

row,Variant,reverse-splicing fitness
1,C82G A111C A120C C150A C169G U176A,0.0183
2,C82G A111C A120C C150A C169G U176C,0.0225
3,C82G A111C A120C C150A C169G U176G,0.00766
4,C82G A111C A120C A145G C169A U176A,0.0223
5,C82G A111C A120C A145G C169A U176C,0.0254
6,C82G A111C A120C A145G C169A U176G,0.00796
7,C82G A111C A120C A145G C169G,0.00771
8,C82G A111C A120C A145G C169U,0.0139
9,C82G A111C A120C A145G C169A,0.00871
10,C82G A111C A120C A145G C150U U176A,0.0138
11,C82G A111C A120C A145G C150U U176G,0.00788
12,C82G A111C A120C A145G C150U U176C,0.0215
13,C82G A111C A120C A145U C150A C169U U176A,0.0126
14,C82G A111C A120C A145U C150A C169U U176G,0.00817
15,C82G A111C A120C A145U C150A C169U U176C,0.0133
16,C82G A111C A120C C150G C169A,0.00742
17,C82G A111C A120C A145G U176C,0.0314
18,C82G A111C A120C A145G U176G,0.00761
19,C82G A111C A120C A145G U176A,0.0172
20,C82G A111C A120C A145C U176A,0.0166
21,C82G A111C A120C A145C U176C,0.0241

row,Variant,reverse-splicing fitness
1,C82G A111C A120C A145C U176G,0.00711
2,C82G A111C A120C A145U C150A C169A,0.00835
3,C82G A111C A120C A145U C150A C169U,0.011
4,C82G A111C A120C A145U C150A C169G,0.0083
5,C82G A111C A120C A145U C150G C169U,0.00897
6,C82G A111C A120C A145U C150G C169G,0.00765
7,C82G A111C A120C A145U C150G C169A,0.00941
8,C82G A111C A120C A145G C150A C169U U176G,0.00795
9,C82G A111C A120C A145G C150A C169U U176A,0.0157
10,C82G A111C A120C A145G C150A C169U U176C,0.0139
11,C82G A111C A120C C150A C169U U176G,0.0085
12,C82G A111C A120C C150A C169U U176C,0.0153
13,C82G A111C A120C C150A C169U U176A,0.015
14,C82G A111C A120C A145C C150U U176G,0.00681
15,C82G A111C A120C A145C C150U U176A,0.0114
16,C82G A111C A120C A145C C150U U176C,0.0129
17,C82G A111C A120C A145G C150G C169G U176C,0.0138
18,C82G A111C A120C A145G C150G C169G U176G,0.0062
19,C82G A111C A120C A145G C150G C169G U176A,0.0118
20,C82G A111C A120C C150G C169A U176A,0.00918
